Paper PMC11794253

What was measured:
[1] = molecular target: His-tagged FcγRIIIa/CD16a extracellular domain (amino acids 17-208), V158 allotype (UniProt P08637); experiment: SPR
[2] = molecular target: human neonatal Fc receptor (hFcRn) (human) (UniProt P55899); experiment: SPR

UniProt P08637, sequence (P08637 17-208 F176V): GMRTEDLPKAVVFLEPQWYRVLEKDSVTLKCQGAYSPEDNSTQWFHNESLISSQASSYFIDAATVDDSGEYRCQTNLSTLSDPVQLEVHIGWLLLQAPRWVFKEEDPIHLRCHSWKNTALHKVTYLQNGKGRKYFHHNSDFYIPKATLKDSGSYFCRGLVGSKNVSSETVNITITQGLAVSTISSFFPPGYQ

- kon [1]: 306000 M⁻¹ s⁻¹
- Kd ([1]; from kinetic rate constants): 127 nM
- Kd ([1]; steady-state analysis): 259 nM
- kon [2]: 389000 M⁻¹ s⁻¹
- Kd ([2]; KD from steady-state analysis): 344 nM
- Kd ([2]; kinetic 1:1 binding model fit): 196 nM
B1: COVA2-15 IgG1, wild type, produced in N. benthamiana ΔXT/FT (antibody, V domains shown)
VH: QVQLLESGGGLVQPGGSLRLSCAASGFTFSSYAMSWVRQAPGKGLEWASAISGSGGSTYYADSVEGRFTISRDNSKNTLYLQMNSLRAEDTAVYYCAKDTGYCGDDCYIKLIRGGPDYWGQGTLVTVSS
VL: DIVMTQSPLSLPVTLGQPASISCRSSQSLVYSDGNTFLNWFQQRPGQSPRRLIYQVSNRDSGVPDRFSGSGSGTDFTLKISRVEAEDVGVYYCMQGTHWPRTFGQGTKLEIK
